Like-named read-outs stand apart in the source and are kept apart here.
Key:
[1] = target: T1, human TREM2 extracellular domain (ECD) (Homo sapiens, UniProt Q9NZC2)
[2] = target: T1, human TREM2 extracellular domain (ECD); assay: SPR

T1 sequence (Q9NZC2 19-174): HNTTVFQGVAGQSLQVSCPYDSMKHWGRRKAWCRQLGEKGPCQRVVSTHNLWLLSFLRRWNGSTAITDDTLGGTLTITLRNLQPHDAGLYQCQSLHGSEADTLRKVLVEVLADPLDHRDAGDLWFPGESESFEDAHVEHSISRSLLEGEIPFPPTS

Binder	binding result [1]	binding result [2]
R18-13-27 (antibody, V domains shown) VH: AVQLVESGGGLVQPKESLKISCAASGFTFSNAAMYWVRQAPGKGLEWVARIRTKPNYHATYYADSVKGRFTISRDDSKSMVYLQMDNLKAEDTAIYYCAASVLYTADSLDYWGQGVMVTVSS VL: DIVMTQSPSSLAVSAGETVTIDCKSSQSLLYSGNQKTYLAWYQQKPGQSPKLLIYWASTRQSGVPDRFIGSGSGTDFTLTISSVQAEDLAIYYCQQYYDTPLTFGSGTKLEIK	binds	–
R19-11-36 (antibody, V domains shown) VH: AVQLVESGGGLVQPKESLKISCAAAGFTFTSAAMYWVRQAPGKGLEWIARIRTKADNIATNYADSVKGRFTISRDDSKNMVYLQMDDLKTEDTAMYYCTAGITTGGFEYWGQGVMVTVSS VL: DIVMTQSPSSLAVSAGETVTIDCKSSQSLLYSGNQKTYLAWYQQKPGQSPKLLIYWASTRQSGVPDRFIGSGSGTDFTLTISSVQAEDLAIYYCQQYYDTPLTFGSGTKLEIK	binds	–
R18-13-31 (antibody, V domains shown) VH: AVQLVESGGGLVQPIESLKISCAASGFTFTNAAMYWVRQAPGKGLEWIARIRTKPNDYATYYADSVKGRFTISRDDSESVVYLQMDNLKTEDTATYYCTAAWDYYSSAFDYWGQGVMVTVSS VL: DIVMTQSPSSLAVSAGETVTIDCKSSQSLLYSGNQKTYLAWYQQKPGQSPKLLIYWASTRQSGVPDRFIGSGSGTDFTLTISSVQAEDLAIYYCQQYYDTPLTFGSGTKLEIK	binds	–
R18-13-35 (antibody, V domains shown) VH: AVQLVESGGGLVQPRESLKISCAASGFTFSNAAMYWVRQAPGKGLEWVARIRTKANNYATNYADSLKGRFIISRDDSKSVVYLQMGNLKPEDTAMYYCTAGDTMGPHWFVYWGQGTLVTVSS VL: DIVMTQSPSSLAVSAGETVTIDCKSSQSLLYSGNQKTYLAWYQQKPGQSPKLLIYWASTRQSGVPDRFIGSGSGTDFTLTISSVQAEDLAIYYCQQYYDTPLTFGSGTKLEIK	binds	–
R19-11-38 (antibody, V domains shown) VH: AVQLVESGGGLVQPKESLKISCAASGFTFSNAAMYWVRQAPGKGLEWVARIRTKPNNYATYYADSVKGRFTISRDDSKSMVYLQMDNLKTEDTAMYYCTAAFYGYYFDYWGQGVMVTVSS VL: DIVMTQSPSSLAVSAGETVTIDCKSSQSLLYSGNQKTYLAWYQQKPGQSPKLLIYWASTRQSGVPDRFIGSGSGTDFTLTISSVQAEDLAIYYCQQYYDTPLTFGSGTKLEIK	binds	–
R19-11-41 (antibody, V domains shown) VH: AVQLVESGGGLVQPKESLKISCAASGFTFSNAAMYWVRQAPGKGLEWVARIRTKPNNYATYYADSVKGRFTISRDDSKSMVYLQMDNLKTEDTAMYYCTAEGITTWFDYWGQGVMVTVSS VL: DIVMTQSPSSLAVSAGETVTIDCKSSQSLLYSGNQKTYLAWYQQKPGQSPKLLIYWASTRQSGVPDRFIGSGSGTDFTLTISSVQAEDLAIYYCQQYYDTPLTFGSGTKLEIK	binds	–
R19-11-40 (antibody, V domains shown) VH: AVQLVESGGGLVQPKESLKISCAASGFTFSNAAMFWVRQAPGEGLEWVARIRTKPNSYATYYADSVKGRFTISRDDSKSMVYLQMDNLKTEDTAMYYCTADYPGMGFDSWGQGVMVTVSS VL: DIVMTQSPSSLAVSAGETVTIDCKSSQSLLYSGNQKTYLAWYQQKPGQSPKLLIYWASTRQSGVPDRFIGSGSGTDFTLTISSVQAEDLAIYYCQQYYDTPLTFGSGTKLEIK	binds	–
R19-11-37 (antibody, V domains shown) VH: AVQLVESGGGLVQPKESLKISCAASGFTFSNAAMYWVRQAPGKGLEWVARIRTKPNNYATYYADSVKGRFTISRDDSKSMVYLQMDNLKTEDTAMYYCIASRYGYDFDYWGQGVMVTVSS VL: DIVMTQSPSSLAVSAGETVTIDCKSSQSLLYSGNQKTYLAWYQQKPGQSPKLLIYWASTRQSGVPDRFIGSGSGTDFTLTISSVQAEDLAIYYCQQYYDTPLTFGSGTKLEIK	binds	–
R18-13-28 (antibody, V domains shown) VH: AVQLVESGGGLVQPKESLKISCAASGFTFSNAAMYWVRQAPGKGLEWVARIRTKTNNYATNYADSVKGRFTISRDDSKSMVYLQMDNLKTEDTAMYYCSAARGGWYLWLDYWGQGVMVTVAS VL: DIVMTQSPSSLAVSAGETVTIDCKSSQSLLYSGNQKTYLAWYQQKPGQSPKLLIYWASTRQSGVPDRFIGSGSGTDFTLTISSVQAEDLAIYYCQQYYDTPLTFGSGTKLEIK	binds	–
R18-13-29 (antibody, V domains shown) VH: AVQLVESGGGLVQPKESLKVSCAASGFTFSNADIYWVRQAPGKGLEWVARIRTKPNNYATYYGDSVKGRFTISRDDSKSMVYLQMDNLKTEDTAMYYCTAGEGLWVNYFDYWGQGVMVTVSS VL: DIVMTQSPSSLAVSAGETVTIDCKSSQSLLYSGNQKTYLAWYQQKPGQSPKLLIYWASTRQSGVPDRFIGSGSGTDFTLTISSVQAEDLAIYYCQQYYDTPLTFGSGTKLEIK	binds	–

Continued, values first:

binding result [1]	binding result [2]	Binder
binds	–	R18-13-30 (antibody, V domains shown) VH: AVQLVESGGGLVQPKESLKVSCAASGFTFSHAAMYWVRQAPGKGLEWVARITTEPNNYATNYADSVKGRFTISRDDSKSMVFLQMDNMKTEDTAMYYCTAEVRVYPYYFDYWGQGVMVTVSS VL: DIVMTQSPSSLAVSAGETVTIDCKSSQSLLYSGNQKTYLAWYQQKPGQSPKLLIYWASTRQSGVPDRFIGSGSGTDFTLTISSVQAEDLAIYYCQQYYDTPLTFGSGTKLEIK
binds	–	R19-11-42 (antibody, V domains shown) VH: AVQLVESGGGLVHPQESLKISCLASGLSFSSAAMYWVRQVPGKGLEWLARIRTKPNNYATFYADSVKGRFTISRDDSKSMVFLQMDDLNTEDTAIYYCTASVFTVAFEYWGQGVMVTVSS VL: DIVMTQSPSSLAVSAGETVTIDCKSSQSLLYSGNQKTYLAWYQQKPGQSPKLLIYWASTRQSGVPDRFIGSGSGTDFTLTISSVQAEDLAIYYCQQYYDTPLTFGSGTKLEIK
binds	–	R18-13-32 (antibody, V domains shown) VH: AVQLVESGGGLVQPKESLKISCAASGFTFSYAAMYWVRQAPGKGLEWVARIRSKPNNYATYYADSVKGRFTISRDDSKSMVYLQMDNLKTEDTAMYYCTAPYYYDGSPFEYWGQGVMVTVSS VL: DIVMTQSPSSLAVSAGETVTIDCKSSQSLLYSGNQKTYLAWYQQKPGQSPKLLIYWASTRQSGVPDRFIGSGSGTDFTLTISSVQAEDLAIYYCQQYYDTPLTFGSGTKLEIK
–	binds	hu3.10C2 G106hD (antibody, V domains shown) VH: EVQLVESGGGLVQPGGSLKLSCATSGFPFSNVWMHWVRQASGKGLEWIAHIKAKSDNYATYYAESVKGRFTISRDDSKTTIYLQMNSLKTEDTAVYYCTDLDYWGQGTTVTVSS VL: DVVMTQSPLSLPVTPGEPASISCRSSRSLLTSKGITSLYWYLQKPGQSPQLLIYRMSNLASGIPDRFSGSGSGTDFTLKISRVEAEDVGVYYCAQFLVYPYTFGPGTKVEIK
–	binds	hu3.10C2 D116hE (antibody, V domains shown) VH: EVQLVESGGGLVQPGGSLKLSCATSGFPFSNVWMHWVRQASGKGLEWIAHIKAKSDNYATYYAESVKGRFTISRDDSKTTIYLQMNSLKTEDTAVYYCTGLEYWGQGTTVTVSS VL: DVVMTQSPLSLPVTPGEPASISCRSSRSLLTSKGITSLYWYLQKPGQSPQLLIYRMSNLASGIPDRFSGSGSGTDFTLKISRVEAEDVGVYYCAQFLVYPYTFGPGTKVEIK

From paper PMC11437124 (Nature Communications, 2024)
